Test results published in US20060233822A1 (YANG SHENG TANG, published 2006).
Residue numbers refer to the chain shown, from its start.

Columns and labels:
Assay in all cases: Western blot of NE2 mutant proteins with monoclonal antibody 16D7
NE2 mutant 602AE = target: T1, NE2 mutant 602AE (hepatitis E virus, UniProt P29326 394-601)
T1 construct: position counted on HEV ORF2
T1 chain: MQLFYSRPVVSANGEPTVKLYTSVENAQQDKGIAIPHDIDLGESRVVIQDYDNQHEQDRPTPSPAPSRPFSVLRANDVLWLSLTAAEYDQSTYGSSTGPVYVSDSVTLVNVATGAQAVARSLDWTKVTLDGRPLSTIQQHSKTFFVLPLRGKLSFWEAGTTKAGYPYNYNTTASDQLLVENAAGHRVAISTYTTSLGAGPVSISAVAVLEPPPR

NE2 mutant 598VE = target: T2, NE2 mutant 598VE (hepatitis E virus, UniProt P29326 394-603)
T2 construct: position counted on HEV ORF2
T2 chain: T1 chain with V206E, E210A

NE2 mutant 597AE = target: T3, NE2 mutant 597AE (hepatitis E virus, UniProt P29326 394-603)
T3 construct: position counted on HEV ORF2
T3 chain: T1 chain with A205E, E210A

NE2 mutant 599AE = target: T4, NE2 mutant 599AE (hepatitis E virus, UniProt P29326 394-603)
T4 construct: position counted on HEV ORF2
T4 chain: T1 chain with A207E, E210A

NE2 mutant 600VE = target: T5, NE2 mutant 600VE (hepatitis E virus, UniProt P29326 394-599)
T5 construct: position counted on HEV ORF2
T5 chain: T1 chain with V208E, E210A

NE2 mutant 601LD = target: T6, NE2 mutant 601LD (hepatitis E virus, UniProt P29326 394-600)
T6 construct: position counted on HEV ORF2
T6 chain: T1 chain with L209D, E210A

Measured: binding result

B1: monoclonal antibody 16D7 (antibody, V domains shown)
VH: EVQLQQSGPELVKPGASVKMSCKASGYKFTSYVMHWVKQKPGQGLEWIGYINPSNDNIKYNEKFKGKAILTLDKSSSTAYMAFSSLTSEDSAVYYCATLTGVDYWGQGTTLTVSS
VL: DVVMTQTPLSLSVTIGQPASISCKSSQSLLYRNGKIYLNWLQQRPGQAPKHLMSQVSKLDPGIPDRFSGSGSETDFTLKISRVEAEDLGVYYCLQGTHYPYTFGGGTKLEIKR
notes: also called MAb 16D7; HRP-16D7
binds: all assays above
